Data from patent US20090117108A1 (published 2009).

Key:
[1] = molecular target: T1, purified CEA (carcinoembryonic antigen) (UniProt P06731 35-685, limits assumed); assay: ELISA, CEA coated at 1 ug/ml, CEA-scTsAb diluted from 10 ug/ml, detected by anti-c-myc antibody
T1 construct: Bought antigen; also called purified CEA (Fitzerald, German); purified CEA(R&D)
T1 sequence (looked up): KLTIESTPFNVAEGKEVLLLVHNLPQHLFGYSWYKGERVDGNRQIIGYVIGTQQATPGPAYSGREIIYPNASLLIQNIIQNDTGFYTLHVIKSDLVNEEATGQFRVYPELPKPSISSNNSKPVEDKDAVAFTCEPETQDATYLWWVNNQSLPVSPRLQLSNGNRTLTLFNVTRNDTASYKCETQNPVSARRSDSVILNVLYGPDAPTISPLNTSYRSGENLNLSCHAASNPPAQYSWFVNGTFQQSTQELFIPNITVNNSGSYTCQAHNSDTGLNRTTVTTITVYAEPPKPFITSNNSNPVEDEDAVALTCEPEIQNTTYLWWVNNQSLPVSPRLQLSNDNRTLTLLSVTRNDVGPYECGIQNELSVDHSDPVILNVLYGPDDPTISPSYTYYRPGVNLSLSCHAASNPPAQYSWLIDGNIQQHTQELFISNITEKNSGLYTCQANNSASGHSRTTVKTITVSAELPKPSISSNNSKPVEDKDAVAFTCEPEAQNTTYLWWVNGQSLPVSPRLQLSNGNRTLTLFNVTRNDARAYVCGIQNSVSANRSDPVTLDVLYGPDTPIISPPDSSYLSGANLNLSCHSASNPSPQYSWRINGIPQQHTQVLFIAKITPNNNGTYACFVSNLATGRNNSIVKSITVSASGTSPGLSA

rhCD28-FC chimera (R&D) = molecular target: T2, rhCD28-FC chimera (R&D) (human (printed as 'rh'), UniProt P10747 19-152); assay: ELISA, rhCD28-FC chimera coated at 1 ug/ml, CEA-scTsAb diluted from 10 ug/ml, detected by anti-c-myc antibody
T2 construct: Bought from R&D; Fc part of the bought chimera not given
T2 sequence (P10747 19-152, change not shown): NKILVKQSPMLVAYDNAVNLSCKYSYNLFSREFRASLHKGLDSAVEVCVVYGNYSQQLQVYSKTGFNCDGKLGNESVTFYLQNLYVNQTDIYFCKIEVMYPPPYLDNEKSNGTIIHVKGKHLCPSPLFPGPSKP

B1: recombinant anti-CEA/CD3/CD28 single-chain tri-specific antibody CEA-scTsAb (other)
chain: MGLEQVQLQQSGAELMKPGASVKISCKATGYTFSDYWIEWVKQRPGHGLEWIGEILPGSGRTDYNERFKGKATFTGDVSSNTAYMKLSSLTSEDSAVYYCATGTTPFGYWGQGTLVTVSATSTPSHNSHQVPSAGGPTANSGSRDIVLTQSPASLAVSLGQRATISCRASQSVSTSSYTYMHWYQQKPGQPPKLLIKYASNLESGVPARFSGSGSGTDFTLNIHPVEEEDTAYYYCQHSWEIPRTFGGGTKLEIKEFNSTYRVVSVLTVLHQDWLNGKEYKCKSTEVKLVESGPELVKPGASMKISCKASGYSFTGYTMNWVKQSHGKNLEWMGLINPYKGVSTYNQKFKDKATLTVDKSSSTAYMELLSLTSEDSAVYYCARSGYYGDSDWYFDVWGAGTSVTVSSTSGGGGSGGGGSGGGGSSRDIQMTQTTSSLSASLGDRVTISCRASQDIRNYLNWYQQKPDGTVKLLIYYTSRLHSGVPSKFSGSGSGTDYSLTISNLEQEDIATYFCQQGNTLPWTFAGGTKLELKRAVDFQNALLVRYTKKVPQVSTPTPVEVSHMQVQLQESGPGLVKPSQTLSLTCTVSGFSLSDYGVHWVRQPPGKGLECLGVIWGGGTNYNSALMSRRVTSSDDTSKNQFSLKLSSVDTAVYYCARSYYYSMDYWGQGTLVTVSSGTEQKLISEEDLNGAAHHHHHHEQ
notes: Single linear tri-specific antibody expressed solubly in the E. coli cytoplasm and purified by DEAE flow-through to about 70-75% purity; also called anti-CEA/CD3/CD28 scTsAb
B1: binds [1]; binds (rhCD28-FC chimera (R&D)).
